# Results reported in the supplement of paper PMC11246515.
# ± gives the standard deviation of the averaged measurements.
# Test: total protein half-life in vivo (active degradation + dilution); higher = more stable protein
# [1] = E. coli NCM3722 delta-clpP delta-lon delta-hslV, growth: N-lim chemostat, doubling time 6 h
# [2] = E. coli NCM3722 delta-clpP, growth: N-lim chemostat, doubling time 6 h
# [3] = E. coli NCM3722 delta-hslV, growth: N-lim chemostat, doubling time 6 h
# [4] = E. coli NCM3722 delta-lon, growth: N-lim chemostat, doubling time 6 h
# [5] = E. coli NCM3722 delta-smpB, growth: N-lim chemostat, doubling time 6 h
# [6] = wild type E. coli NCM3722, growth: C-lim chemostat, doubling time 3 h
# [7] = wild type E. coli NCM3722, growth: C-lim chemostat, doubling time 6 h
# [8] = wild type E. coli NCM3722, growth: C-lim chemostat, doubling time 12 h
# [9] = wild type E. coli NCM3722, growth: N-lim chemostat, doubling time 6 h
# [10] = wild type E. coli NCM3722, growth: N-lim chemostat, doubling time 12 h
# [11] = wild type E. coli NCM3722, growth: P-lim chemostat, doubling time 6 h
# [12] = wild type E. coli NCM3722, growth: P-lim chemostat, doubling time 12 h
Sequence,total protein half-life in vivo [1],total protein half-life in vivo [2],total protein half-life in vivo [3],total protein half-life in vivo [4],total protein half-life in vivo [5],total protein half-life in vivo [6],total protein half-life in vivo [7],total protein half-life in vivo [8],total protein half-life in vivo [9],total protein half-life in vivo [10],total protein half-life in vivo [11],total protein half-life in vivo [12]
MIKKIGVLTSGGDAPGMNAAIRGVVRSALTEGLEVMGIYDGYLGLYEDRMVQLDRYSVSDMINRGGTFLGSARFPEFRDENIRAVAIENLKKRGIDALVVIGGDGSYMGAMRLTEMGFPCIGLPGTIDNDIKGTDYTIGFFTALSTVVEAIDRLRDTSSSHQRISVVEVMGRYCGDLTLAAAIAGGCEFVVVPEVEFSREDLVNEIKAGIAKGKKHAIVAITEHMCDVDELAHFIEKETGRETRATVLGHIQRGGSPVPYDRILASRMGAYAIDLLLAGYGGRCVGIQNEQLVHHDIIDAIENMKRPFKGDWLDCAKKLY [P0A796],4.43 ± 0.51 h,3.9 ± 0.11 h,4.03 ± 0.12 h,4.146 ± 0.0074 h,3.89 ± 0.13 h,3 ± 0.15 h,5.83 ± 0.099 h,10.3 ± 0.71 h,3.64 ± 0.18 h,5.77 ± 0.15 h,5.69 ± 0.36 h,11.7 ± 0.9 h
MIKLSNITKVFHQGTRTIQALNNVSLHVPAGQIYGVIGASGAGKSTLIRCVNLLERPTEGSVLVDGQELTTLSESELTKARRQIGMIFQHFNLLSSRTVFGNVALPLELDNTPKDEVKRRVTELLSLVGLGDKHDSYPSNLSGGQKQRVAIARALASNPKVLLCDEATSALDPATTRSILELLKDINRRLGLTILLITHEMDVVKRICDCVAVISNGELIEQDTVSEVFSHPKTPLAQKFIQSTLHLDIPEDYQERLQAEPFTDCVPMLRLEFTGQSVDAPLLSETARRFNVNNNIISAQMDYAGGVKFGIMLTEMHGTQQDTQAAIAWLQEHHVKVEVLGYV,6.5123 ± 0.0016 h,6.41 ± 0.39 h,6.04 ± 0.08 h,6.66 ± 0.25 h,5.61 ± 0.26 h,–,5.76 ± 0.38 h,9.681 ± 0.078 h,5.85 ± 0.51 h,12.67 ± 0.12 h,6.3 ± 0.86 h,12.1 ± 0.42 h
MIKQRTLKRIVQATGVGLHTGKKVTLTLRPAPANTGVIYRRTDLNPPVDFPADAKSVRDTMLCTCLVNEHDVRISTVEHLNAALAGLGIDNIVIEVNAPEIPIMDGSAAPFVYLLLDAGIDELNCAKKFVRIKETVRVEDGDKWAEFKPYNGFSLDFTIDFNHPAIDSSNQRYAMNFSADAFMRQISRARTFGFMRDIEYLQSRGLCLGGSFDCAIVVDDYRVLNEDGLRFEDEFVRHKMLDAIGDLFMCGHNIIGAFTAYKSGHALNNKLLQAVLAKQEAWEYVTFQDDAELPLAFKAPSAVLA [P0A725],2.8 ± 0.28 h,0.889 ± 0.17 h,0.979 ± 0.33 h,1.03 ± 0.011 h,0.639 ± 0.021 h,0.467 ± 0.1 h,0.861 ± 0.11 h,1.1 ± 0.33 h,0.978 ± 0.12 h,1.43 ± 0.28 h,1.06 ± 0.19 h,2.1 ± 0.78 h
MIKRNLPLMITIGVFVLGYLYCLTQFPGFASTRVICNILTDNAFLGIIAVGMTFVILSGGIDLSVGSVIAFTGVFLAKVIGDFGLSPLLAFPLVLVMGCAFGAFMGLLIDALKIPAFIITLAGMFFLRGVSYLVSEESIPINHPIYDTLSSLAWKIPGGGRLSAMGLLMLAVVVIGIFLAHRTRFGNQVYAIGGNATSANLMGISTRSTTIRIYMLSTGLATLAGIVFSIYTQAGYALAGVGVELDAIASVVIGGTLLSGGVGTVLGTLFGVAIQGLIQTYINFDGTLSSWWTKIAIGILLFIFIALQRGLTVLWENRQSSPVTRVNIAQQ,–,–,–,–,–,3.66 h,6.05 h,–,–,–,–,–
MIKRTLLAAAIFSALPAYAGLTSITAGYDFTDYSGDHGNRNLAYAELVAKVENATLLFNLSQGRRDYETEHFNATRGQGAVWYKWNNWLTTRTGIAFADNTPVFARQDFRQDINLALLPKTLFTTGYRYTKYYDDVEVDAWQGGVSLYTGPVITSYRYTHYDSSDAGGSYSNMISVRLNDPRGTGYTQLWLSRGTGAYTYDWTPETRYGSMKSVSLQRIQPLTEQLNLGLTAGKVWYDTPTDDFNGLQLAARLTWKF,–,–,–,–,> 8 h,–,–,15.4 h,–,–,–,–
MIKVLIVDDEPLARENLRVFLQEQSDIEIVGECSNAVEGIGAVHKLRPDVLFLDIQMPRISGLEMVGMLDPEHRPYIVFLTAFDEYAIKAFEEHAFDYLLKPIDEARLEKTLARLRQERSKQDVSLLPENQQALKFIPCTGHSRIYLLQMKDVAFVSSRMSGVYVTSHEGKEGFTELTLRTLESRTPLLRCHRQYLVNLAHLQEIRLEDNGQAELILRNGLTVPVSRRYLKSLKEAIGL [P0AFT5],5.88 h,4.54 ± 0.31 h,–,5.56 h,3.83 h,3.04 ± 0.45 h,5.55 ± 0.23 h,–,5.02 ± 0.13 h,7.03 ± 0.46 h,–,10.1 ± 0.16 h
MILHAQAKHGKPGLPWLVFLHGFSGDCHEWQEVGEAFADYSRLYVDLPGHGGSAAISVDGFDDVTDLLRKTLVSYNILDFWLVGYSLGGRVAMMAACQGLAGLCGVIVEGGHPGLQNAEQRAERQRSDRQWVQRFLTEPLTAVFADWYQQPVFASLNDDQRRELVALRSNNNGATLAAMLEATSLAVQPDLRANLSARTFAFYYLCGERDSKFRALAAELAADCHVIPRAGHNAHRENPAGVIASLAQILRF,–,–,–,–,–,3.44 h,–,–,–,–,–,–
